Test [1] deals with Bunyamwera virus (BUNV) Gc head domain (aa 478–721) (Bunyamwera virus) (UniProt P04505). The test is described as follows: crystal structure.
The target in test [2] is La Crosse virus (LACV) Gc head domain (aa 477–722), tryptic fragment of the variable region (aa 477–911) (La Crosse virus) (UniProt Q8JPR1). Briefly: crystal structure.

The text below walks through data of paper PMC6382863.

Chain of Bunyamwera virus (BUNV) Gc head domain (aa 478–721) (P04505 478-721): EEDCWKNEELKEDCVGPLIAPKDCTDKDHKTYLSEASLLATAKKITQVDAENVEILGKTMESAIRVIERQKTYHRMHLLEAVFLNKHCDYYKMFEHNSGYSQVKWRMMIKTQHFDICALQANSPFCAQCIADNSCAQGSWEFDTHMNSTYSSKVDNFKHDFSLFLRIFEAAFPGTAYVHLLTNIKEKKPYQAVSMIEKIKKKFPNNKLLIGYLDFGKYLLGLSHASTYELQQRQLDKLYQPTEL
Chain of La Crosse virus (LACV) Gc head domain (aa 477–722), tryptic fragment of the variable region (aa 477–911) (Q8JPR1 477-722): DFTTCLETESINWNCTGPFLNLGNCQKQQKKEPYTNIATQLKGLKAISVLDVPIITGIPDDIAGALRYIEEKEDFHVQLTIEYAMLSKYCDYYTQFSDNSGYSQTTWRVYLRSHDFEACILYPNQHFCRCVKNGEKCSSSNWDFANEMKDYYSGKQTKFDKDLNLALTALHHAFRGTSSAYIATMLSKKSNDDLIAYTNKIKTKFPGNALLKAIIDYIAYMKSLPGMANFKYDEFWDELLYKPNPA

Consider “Bunyamwera virus (BUNV) Gc head domain (aa 478–721) (from UniProt P04505 478-721) (domain or fragment)”, for which, in test [1], the stoichiometry N (in general, a count of units in the complex or per binding partner) came to 3.

“La Crosse virus (LACV) Gc head domain (aa 477–722), tryptic fragment of the variable region (aa 477–911) (from UniProt Q8JPR1 477-722) (domain or fragment)”: the stoichiometry N in test [2] amounted to 3.
